The experiment concerns the target NRTN-GFRα2 complex (wild type) (human) (UniProt Q99748). Put plainly: SPR. (In general: SPR reads the build-up and loss of mass on a sensor chip optically.)
UniProt Q99748, sequence (Q99748 97-197, chain 1 of 2): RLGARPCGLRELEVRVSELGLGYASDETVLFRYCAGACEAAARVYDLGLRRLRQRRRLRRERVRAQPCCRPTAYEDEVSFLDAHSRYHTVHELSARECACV
UniProt Q99748, sequence (O00451 22-441, chain 2 of 2, further chain): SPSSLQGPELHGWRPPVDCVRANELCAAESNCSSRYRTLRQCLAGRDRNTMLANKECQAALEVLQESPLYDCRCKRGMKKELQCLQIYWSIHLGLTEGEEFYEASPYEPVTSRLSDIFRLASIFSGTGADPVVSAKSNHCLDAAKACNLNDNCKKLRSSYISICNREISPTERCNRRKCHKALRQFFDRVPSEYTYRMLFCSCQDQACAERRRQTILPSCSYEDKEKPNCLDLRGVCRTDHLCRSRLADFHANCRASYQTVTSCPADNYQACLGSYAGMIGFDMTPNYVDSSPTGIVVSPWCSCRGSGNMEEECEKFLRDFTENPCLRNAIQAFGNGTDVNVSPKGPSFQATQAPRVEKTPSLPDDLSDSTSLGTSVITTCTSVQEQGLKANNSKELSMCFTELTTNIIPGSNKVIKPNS

With “human RET extracellular domain (RET^ECD, 29 to 635) (from UniProt P07949 29-635) (receptor)”, the increase in response over NRTN alone amounted to 150 RU.
